Source: patent publication US20100197581A1 (TIBOTEC PHARMACEUTICALS, published 2010)

Molecular target: sCD4 induced HIV-1 IIIB Env complexes (gp120/gp41 native spikes) on HUTIIIB cells (clone 199-76) (HIV-1 IIIB; human, UniProt P04578 33-856; P01730 26-396)

B1: F105 (antibody, V domains shown)
VH: QVQLQESGPGLVKPSETLSLTCTVSGGSISSHYWSWIRQSPGKGLQWIGYIYYSGSTNYSPSLKSRVTISVETSKNQFSLKLTSMTAADTAVYYCARGPVPAVFYGDYRLDPWGQGTLVTVSS
VL: EIVLTQSPGTLSLSAGERATLSCRASQSVSSRYLAWYQQKPGQAPRLLIYGASSRATGIPDRFSGSGSGTDFTLTISRVEPEDFAVYYCQQYDNSVCTFGQGTKLEIK
EC50: > 100 nM
